Laboratory results as given in article PMC3708871.

T1: Recombinant SIVmac239 Nef core domain, residues 96–237
T1 chain: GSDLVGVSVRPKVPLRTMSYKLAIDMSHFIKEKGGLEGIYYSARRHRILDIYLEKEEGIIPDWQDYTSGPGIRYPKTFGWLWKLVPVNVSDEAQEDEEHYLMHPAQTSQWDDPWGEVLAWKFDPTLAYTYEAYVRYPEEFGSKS

B1: Peptide of the cytoplasmic domain of rhesus macaque tetherin, residues 1–26, biotinylated D14A; D15A; I16A; W17A; K18A (peptide)
chain: MAPILYDYRKMPMAAAAAEDGDKRCK
B2: Peptide of the cytoplasmic domain of human tetherin, residues 1–21, C9S, biotinylated insertion of D14DIWK18 from rhesus tetherin into human tetherin peptide … (peptide)
chain: MASTSYDYSRVPMDDIWKEDGDKRCK

Target: T1, Recombinant SIVmac239 Nef core domain, …
Test: SPR
Settings: chain shown with the change; Nef96–237 at about 650 µM (highest concentration point), peptide on chip; parent: est. 1900; read off a plot
Molecule B1 has a response of 1100 RU.

Same assay, conditions: chain shown with the change; Nef96–237 at about 650 µM (highest concentration point), peptide on chip; read off a plot
B2 was tested, and the response was 800 RU.

The molecules below were run against Rhesus macaque tetherin (BST-2), allele rBST-2.1 (assay: co-immunoprecipitation). Settings: 293T cells co-transfected; lysates immunoprecipitated with a monoclonal antibody to tetherin; parent: 1.
Molecule “SIVmac239 Nef, wild type M66A; N67A; T68A; P69A; W70A; R71A” has a ratio to parent of 0.05. Molecule “SIVmac239 Nef, wild type M66A; N67A; T68A; P69A; W70A; R71A; I117A; L174A; W175A; N181A; V182A” has a ratio to parent of 0.07.

The molecules below were run against SIVmac239 Nef, wild type (assay: co-immunoprecipitation). Settings: IP: α-BST2; parent: 0.13.
With “Human tetherin (BST-2) (from UniProt Q10589) insertion of D14DIWK18 from rhesus tetherin into human tetherin (hDDIWK)” the other: Nef/BST2 band intensity ratio was 0.65.

What follows are molecules tested against Dynamin 2 fused to GFP (UniProt P50570) (assay: co-IP; 293T co-transfected with Nef constructs and Dyn2-GFP; lysates immunoprecipitated with a mAb to GFP, blots for Nef and GFP; band ratios). Settings: not given.
UniProt P50570, sequence (P50570 whole entry, the tested form may be a part): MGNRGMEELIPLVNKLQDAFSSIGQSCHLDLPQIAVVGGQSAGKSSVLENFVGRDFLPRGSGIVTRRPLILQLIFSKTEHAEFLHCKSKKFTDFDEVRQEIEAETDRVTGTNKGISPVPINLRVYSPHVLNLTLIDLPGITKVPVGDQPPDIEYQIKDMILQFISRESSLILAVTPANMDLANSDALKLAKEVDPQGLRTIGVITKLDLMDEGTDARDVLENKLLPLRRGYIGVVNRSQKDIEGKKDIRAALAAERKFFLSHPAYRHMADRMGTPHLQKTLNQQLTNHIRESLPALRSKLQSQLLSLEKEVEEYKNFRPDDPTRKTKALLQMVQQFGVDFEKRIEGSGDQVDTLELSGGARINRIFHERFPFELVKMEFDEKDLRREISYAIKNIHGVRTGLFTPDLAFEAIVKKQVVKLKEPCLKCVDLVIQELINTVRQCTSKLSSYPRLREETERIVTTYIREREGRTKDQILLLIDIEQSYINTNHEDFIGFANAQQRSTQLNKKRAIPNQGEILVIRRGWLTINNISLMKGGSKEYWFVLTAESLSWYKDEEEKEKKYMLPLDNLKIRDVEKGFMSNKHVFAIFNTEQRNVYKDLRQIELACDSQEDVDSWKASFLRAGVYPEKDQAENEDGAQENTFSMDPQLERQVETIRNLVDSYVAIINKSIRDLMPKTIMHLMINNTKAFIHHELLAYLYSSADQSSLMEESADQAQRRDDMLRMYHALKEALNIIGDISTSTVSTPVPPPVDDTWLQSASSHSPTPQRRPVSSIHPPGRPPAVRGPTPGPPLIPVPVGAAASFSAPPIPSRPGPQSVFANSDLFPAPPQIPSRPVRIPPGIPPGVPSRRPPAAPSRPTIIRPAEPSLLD
“SIVmac239 Nef, wild type (natural protein)” showed a Dyn2 binding (Nef/dynamin 2 band intensity in IP) of 1.1.

What follows are molecules tested against Rhesus macaque tetherin (BST-2), allele rBST-2.1 (rhesus macaque) (assay: co-IP; 293T co-transfected with Nef and tetherin constructs; lysates immunoprecipitated with anti-tetherin mAb 3H4 and protein A beads, blots for Nef and tetherin; band densities by ImageJ). Settings: not given.
Molecule “SIVmac239 Nef G2A (myristoylation site mutant) (natural protein)” has a BST2 binding (Nef/tetherin band intensity in IP) of 0.16. In the case of “SIVmac239 Nef with pair-wise alanine substitutions at positions 5–6 (natural protein)”, the BST2 binding (Nef/tetherin band intensity in IP) is reported as 0.18. In the case of “SIVmac239 Nef with pair-wise alanine substitutions at positions 60–61 (natural protein)”, the BST2 binding (Nef/tetherin band intensity in IP) is reported as 0.7. Molecule “SIVmac239 Nef with pair-wise alanine substitutions at positions 64–65 (natural protein)” has a BST2 binding (Nef/tetherin band intensity in IP) of 0.54. “SIVmac239 Nef with pair-wise alanine substitutions at positions 66–67 (natural protein)” was tested, and the BST2 binding (Nef/tetherin band intensity in IP) was 0.18. Molecule “SIVmac239 Nef with pair-wise alanine substitutions at positions 68–69 (natural protein)” has a BST2 binding (Nef/tetherin band intensity in IP) of 0.14. “SIVmac239 Nef with pair-wise alanine substitutions at positions 70–71 (natural protein)” gave a BST2 binding (Nef/tetherin band intensity in IP) of 0.28. For “SIVmac239 Nef with pair-wise alanine substitutions at positions 74–75 (natural protein)”, the BST2 binding (Nef/tetherin band intensity in IP) was 0.71. “SIVmac239 Nef with pair-wise alanine substitutions at positions 82–83 (natural protein)” gave a BST2 binding (Nef/tetherin band intensity in IP) of 1.38. In the case of “SIVmac239 Nef with pair-wise alanine substitutions at positions 86–87 (natural protein)”, the BST2 binding (Nef/tetherin band intensity in IP) is reported as 0.47. With “SIVmac239 Nef with pair-wise alanine substitutions at positions 88–89 (natural protein)” the BST2 binding (Nef/tetherin band intensity in IP) was 0.93. For “SIVmac239 Nef with pair-wise alanine substitutions at positions 106–107 (natural protein)”, the BST2 binding (Nef/tetherin band intensity in IP) was 0.82. “SIVmac239 Nef with pair-wise alanine substitutions at positions 108–109 (natural protein)” gave a BST2 binding (Nef/tetherin band intensity in IP) of 1.87. Molecule “SIVmac239 Nef with pair-wise alanine substitutions at positions 110–111 (natural protein)” has a BST2 binding (Nef/tetherin band intensity in IP) of 1.29. With “SIVmac239 Nef with pair-wise alanine substitutions at positions 112–113 (natural protein)” the BST2 binding (Nef/tetherin band intensity in IP) was 0.35. “SIVmac239 Nef with pair-wise alanine substitutions at positions 116–117 (natural protein)” gave a BST2 binding (Nef/tetherin band intensity in IP) of 0.16. Work on “SIVmac239 Nef with pair-wise alanine substitutions at positions 128–129 (natural protein)” yielded a BST2 binding (Nef/tetherin band intensity in IP) of 1.11. Work on “SIVmac239 Nef with pair-wise alanine substitutions at positions 130–131 (natural protein)” yielded a BST2 binding (Nef/tetherin band intensity in IP) of 2.4. “SIVmac239 Nef with pair-wise alanine substitutions at positions 132–133 (natural protein)” was tested, and the BST2 binding (Nef/tetherin band intensity in IP) was 0.79. With “SIVmac239 Nef with pair-wise alanine substitutions at positions 134–135 (natural protein)” the BST2 binding (Nef/tetherin band intensity in IP) was 2.58. Work on “SIVmac239 Nef with pair-wise alanine substitutions at positions 138–139 (natural protein)” yielded a BST2 binding (Nef/tetherin band intensity in IP) of 0.84. Molecule “SIVmac239 Nef with pair-wise alanine substitutions at positions 140–141 (natural protein)” has a BST2 binding (Nef/tetherin band intensity in IP) of 1.38. For “SIVmac239 Nef with pair-wise alanine substitutions at positions 142–143 (natural protein)”, the BST2 binding (Nef/tetherin band intensity in IP) was 5.1. Molecule “SIVmac239 Nef with pair-wise alanine substitutions at positions 146–147 (natural protein)” has a BST2 binding (Nef/tetherin band intensity in IP) of 1.56. Molecule “SIVmac239 Nef with pair-wise alanine substitutions at positions 152–153 (natural protein)” has a BST2 binding (Nef/tetherin band intensity in IP) of 1.68. Work on “SIVmac239 Nef with pair-wise alanine substitutions at positions 156–157 (natural protein)” yielded a BST2 binding (Nef/tetherin band intensity in IP) of 1.46. For “SIVmac239 Nef with pair-wise alanine substitutions at positions 158–159 (natural protein)”, the BST2 binding (Nef/tetherin band intensity in IP) was 0.76. “SIVmac239 Nef with pair-wise alanine substitutions at positions 160–161 (natural protein)” gave a BST2 binding (Nef/tetherin band intensity in IP) of 1.64. For “SIVmac239 Nef with pair-wise alanine substitutions at positions 164–165 (natural protein)”, the BST2 binding (Nef/tetherin band intensity in IP) was 1.34. In the case of “SIVmac239 Nef with pair-wise alanine substitutions at positions 166–167 (natural protein)”, the BST2 binding (Nef/tetherin band intensity in IP) is reported as 1.4. Molecule “SIVmac239 Nef with pair-wise alanine substitutions at positions 168–169 (natural protein)” has a BST2 binding (Nef/tetherin band intensity in IP) of 2.1. For “SIVmac239 Nef with pair-wise alanine substitutions at positions 170–171 (natural protein)”, the BST2 binding (Nef/tetherin band intensity in IP) was 2.61. “SIVmac239 Nef with pair-wise alanine substitutions at positions 172–173 (natural protein)” gave a BST2 binding (Nef/tetherin band intensity in IP) of 1.34. “SIVmac239 Nef with pair-wise alanine substitutions at positions 174–175 (natural protein)” was tested, and the BST2 binding (Nef/tetherin band intensity in IP) was 0.52. “SIVmac239 Nef with pair-wise alanine substitutions at positions 176–177 (natural protein)” was tested, and the BST2 binding (Nef/tetherin band intensity in IP) was 3.17. Work on “SIVmac239 Nef with pair-wise alanine substitutions at positions 181–182 (natural protein)” yielded a BST2 binding (Nef/tetherin band intensity in IP) of 0.23. Work on “SIVmac239 Nef with pair-wise alanine substitutions at positions 193–194 (natural protein)” yielded a BST2 binding (Nef/tetherin band intensity in IP) of 0.22. “SIVmac239 Nef with pair-wise alanine substitutions at positions 195–196 (natural protein)” showed a BST2 binding (Nef/tetherin band intensity in IP) of 0.31. “SIVmac239 Nef with pair-wise alanine substitutions at positions 199–200 (natural protein)” was tested, and the BST2 binding (Nef/tetherin band intensity in IP) was 0.43. In the case of “SIVmac239 Nef with pair-wise alanine substitutions at positions 203–204 (natural protein)”, the BST2 binding (Nef/tetherin band intensity in IP) is reported as 0.74. Molecule “SIVmac239 Nef with pair-wise alanine substitutions at positions 205–206 (natural protein)” has a BST2 binding (Nef/tetherin band intensity in IP) of 0.94. “SIVmac239 Nef with pair-wise alanine substitutions at positions 209–210 (natural protein)” was tested, and the BST2 binding (Nef/tetherin band intensity in IP) was 1.4. With “SIVmac239 Nef, wild type (natural protein)” the BST2 binding (Nef/tetherin band intensity in IP) was 1.

The molecules below were run against Peptide of the cytoplasmic domain of rhesus macaque tetherin, residues 1–26, biotinylated (rhesus macaque) (assay: SPR; BIAcore 3000, 25°C, PBS with 5 mM DTT; biotinylated tetherin peptides captured (3,000 RU) on neutravidin-coated CM5 chip, Nef proteins flowed at 5 µl/min; equilibrium analysis, apparent Kd). Settings: not given.
Work on “Recombinant SIVmac239 Nef core domain, residues 96–237 (domain or fragment)” yielded a Kd of 401 µM.
